From patent US20040071717A1 come the findings set out here.

The experiment has as its target specific IgE from a pool of sera from plantain-allergic patients. Put plainly: inhibition ELISA: nPla I 1 coated on plate, pooled-serum IgE inhibited by rPla I 1.0101, detection with HRP-labeled anti-human IgE. A general note: An ELISA detects its analyte on a solid surface through an enzyme-linked reagent.

B1: recombinant Pla I 1 allergen, variant 0101 (rPla I 1.0101), expressed in Pichia pastoris (protein)
chain: ETQTSHPAKFHVEGEVYCNVCHSRNLINELSERMAGAQVQLDCKDDSKKVIYSIGGETDQDGVYRLPVVGYHEDCEIKLVKSSRPDCSEIPKLAKGTIQTSKVDLSKNTTITEKTRHVKPLSFRAKTDAPGC
modifications: partly N-glycosylated (glycosylated 22 kDa and non-glycosylated 17 kDa forms; potential N-glycosylation site at position 107)
For the molecule B1, the % inhibition of IgE-binding came to 80%.
